Positions count from the first letter of the chain named. In names and notes the source's numbering stands.
B1: hSIRPα.50A.H1L2 (antibody, human IgG4 S228P, kappa, V domains shown)
VH: EVQLQQSGAEVVKPGASVKVSCKASGFTFTNYYIHWVRQAPGQGLEWIGWIYPGNVNTKYNEKFKARVTITADKSTSTAYMDLSSLRSEDTAVYYCARPTIIATDFDVWGQGTTVTVSS
VL: DIVMTQSPSSLSASVGDRVTITCKASQGVGTAVGWYQQKPGKAPKLLIYWASTRHTGVPDRFSGSGSGTDFTLTISNLQPEDFADYYCQQYSTYPFTFGGGTKVEIKR
notes: human IgG4 S228P, kappa; also called hSIRPα.50H1L2
B2: hSIRPα.50A.H1L1 (antibody, human IgG4 S228P, kappa, V domains shown)
VH: B1 VH
VL: B1 VL with M4L, S10F, D70E, N77S, D85A, V104L
notes: human IgG4 S228P, kappa; also called hSIRPα.50H1L1
B3: hSIRPα.50A.H1L3 (antibody, human IgG4 S228P, kappa, V domains shown)
VH: B1 VH
VL: B1 VL with D1E, I2L, T74A, N77S, F83I
notes: human IgG4 S228P, kappa; also called hSIRPα.50H1L3
B4: hSIRPα.50A.H1L4 (antibody, human IgG4 S228P, kappa, V domains shown)
VH: B1 VH
VL: B1 VL with V3Q, Q38K, A43V, S76N, N77G, F83V, D85T, V104L
notes: human IgG4 S228P, kappa; also called hSIRPα.50H1L4
B5: hSIRPα.50A.H1L5 (antibody, human IgG4 S228P, kappa, V domains shown)
VH: B1 VH
VL: B1 VL with M4L, S10F, A43S, D70E, D85A, V104L
notes: human IgG4 S228P, kappa; also called hSIRPα.50H1L5
B6: hSIRPα.50A.H3L2 (antibody, human IgG4 S228P, kappa, V domains shown)
VH: B1 VH with Q5V, K19M, V20I, A40R, T69I, I70M, A79V, D82Q, R87T, T114L
VL: B1 VL
notes: human IgG4 S228P, kappa; also called hSIRPα.50H3L2
B7: hSIRPα.50A.H4L2 (antibody, human IgG4 S228P, kappa, V domains shown)
VH: B1 VH with V11L, A40R, I48M, R67K, V68A, D82E, R87T
VL: B1 VL
notes: human IgG4 S228P, kappa; also called hSIRPα.50H4L2
B8: hSIRPα.50A.H4L3 (antibody, human IgG4 S228P, kappa, V domains shown)
VH: B1 VH with V11L, A40R, I48M, R67K, V68A, D82E, R87T
VL: B1 VL with D1E, I2L, T74A, N77S, F83I
notes: human IgG4 S228P, kappa; also called hSIRPα.50H4L3
B9: hSIRPα.50A.H5L1 (antibody, human IgG4 S228P, kappa, V domains shown)
VH: B1 VH with Q5V, G42E, I70M, D82E, E89D, T91M
VL: B1 VL with M4L, S10F, D70E, N77S, D85A, V104L
notes: human IgG4 S228P, kappa; also called hSIRPα.50H5L1
B10: hSIRPα.50A.H5L2 (antibody, human IgG4 S228P, kappa, V domains shown)
VH: B1 VH with Q5V, G42E, I70M, D82E, E89D, T91M
VL: B1 VL
notes: human IgG4 S228P, kappa; also called hSIRPα.50H5L2
B11: hSIRPα.50A.H5L3 (antibody, human IgG4 S228P, kappa, V domains shown)
VH: B1 VH with Q5V, G42E, I70M, D82E, E89D, T91M
VL: B1 VL with D1E, I2L, T74A, N77S, F83I
notes: human IgG4 S228P, kappa; also called hSIRPα.50H5L3
B12: hSIRPα.50A.H5L5 (antibody, human IgG4 S228P, kappa, V domains shown)
VH: B1 VH with Q5V, G42E, I70M, D82E, E89D, T91M
VL: B1 VL with M4L, S10F, A43S, D70E, D85A, V104L
notes: human IgG4 S228P, kappa; also called hSIRPα.50H5L5
B13: hSIRPα.50A.H3L1 (antibody, human IgG4 S228P, kappa, V domains shown)
VH: B1 VH with Q5V, K19M, V20I, A40R, T69I, I70M, A79V, D82Q, R87T, T114L
VL: B1 VL with M4L, S10F, D70E, N77S, D85A, V104L
notes: human IgG4 S228P, kappa; also called hSIRPα.50H3L1
B14: hSIRPα.50A.H3L3 (antibody, human IgG4 S228P, kappa, V domains shown)
VH: B1 VH with Q5V, K19M, V20I, A40R, T69I, I70M, A79V, D82Q, R87T, T114L
VL: B1 VL with D1E, I2L, T74A, N77S, F83I
notes: human IgG4 S228P, kappa; also called hSIRPα.50H3L3
B15: hSIRPα.50A.H3L4 (antibody, human IgG4 S228P, kappa, V domains shown)
VH: B1 VH with Q5V, K19M, V20I, A40R, T69I, I70M, A79V, D82Q, R87T, T114L
VL: B1 VL with V3Q, Q38K, A43V, S76N, N77G, F83V, D85T, V104L
notes: human IgG4 S228P, kappa; also called hSIRPα.50H3L4
B16: hSIRPα.50A.H3L5 (antibody, human IgG4 S228P, kappa, V domains shown)
VH: B1 VH with Q5V, K19M, V20I, A40R, T69I, I70M, A79V, D82Q, R87T, T114L
VL: B1 VL with M4L, S10F, A43S, D70E, D85A, V104L
notes: human IgG4 S228P, kappa; also called hSIRPα.50H3L5
B17: hSIRPα.50A.H4L1 (antibody, human IgG4 S228P, kappa, V domains shown)
VH: B1 VH with V11L, A40R, I48M, R67K, V68A, D82E, R87T
VL: B1 VL with M4L, S10F, D70E, N77S, D85A, V104L
notes: human IgG4 S228P, kappa; also called hSIRPα.50H4L1
B18: hSIRPα.50A.H4L4 (antibody, human IgG4 S228P, kappa, V domains shown)
VH: B1 VH with V11L, A40R, I48M, R67K, V68A, D82E, R87T
VL: B1 VL with V3Q, Q38K, A43V, S76N, N77G, F83V, D85T, V104L
notes: human IgG4 S228P, kappa; also called hSIRPα.50H4L4
B19: hSIRPα.50A.H4L5 (antibody, human IgG4 S228P, kappa, V domains shown)
VH: B1 VH with V11L, A40R, I48M, R67K, V68A, D82E, R87T
VL: B1 VL with M4L, S10F, A43S, D70E, D85A, V104L
notes: human IgG4 S228P, kappa; also called hSIRPα.50H4L5
B20: hSIRPα.50A.H5L4 (antibody, human IgG4 S228P, kappa, V domains shown)
VH: B1 VH with Q5V, G42E, I70M, D82E, E89D, T91M
VL: B1 VL with V3Q, Q38K, A43V, S76N, N77G, F83V, D85T, V104L
notes: human IgG4 S228P, kappa; also called hSIRPα.50H5L4

The binders below were run against T1, human SIRPγ (human, UniProt Q9P1W8 29-387) (assay: CELISA, CHO-K1 transfectants; extrapolated).
T1 construct: on transfected CHO-K1 cells; also called hSIRPγ
Description: (§1) Binding of the humanized antibodies to hSIRPα was studied in CELISA format. Binding of the hSIRPα antibodies to human SIRPαV1, SIRPαV2, hSIRPβ1, and hSIRPγ was confirmed using CHO-K1 cells that had been transiently transfected with cDNA encoding the full length open reading frame of each of these respective targets subcloned into the pCI-neo vector. CHO-K1.hSIRPαV1, CHO-K1.hSIRPαV2, CHO-K1.hSIRPβ1, and CHO-K1.hSIRPγ cells were seeded in culture medium (DMEM-F12 (Gibco) supplemented with 5% New Born Calf Serum (BioWest) and Pen/Strep (Gibco)) in 96-well flat-bottom tissue culture plates and incubated at 37° C., 5% CO₂ and 95% humidity until cell layers were confluent. Subsequently, culture medium was removed and cells were incubated for 1 hour at 37° C., 5% CO₂ and 95% humidity with purified hSIRPα antibodies (10 μg/mL and dilutions thereof). Next, cells were washed with PBS-T and incubated for 1 hour at 37° C., 5% CO₂ and 95% humidity with goat-anti-human IgG-HRP conjugate (Jackson Immuno Research) or goat-anti-mouse IgG-HRP (Southern Biotech). Subsequently, cells were washed three times with PBS-T and anti-hSIRPα immunoreactivity was visualized with TMB Stabilized Chromogen (Invitrogen). Reactions were stopped with 0.5 M H₂SO₄ and absorbances were read at 450 and 610 nm. […] In Table 13 the EC50 values of the humanized hSIRPα antibodies are depicted.
(§2) Table 13: Binding of humanized and parental hSIRPα.50A antibodies to CHO-K1.hSIRPαV1, CHO-K1.hSIRPαV2, CHO-K1.hSIRPβ1, and CHO-K1.hSIRPγ cells.

T1 sequence (Q9P1W8 29-387 limits assumed): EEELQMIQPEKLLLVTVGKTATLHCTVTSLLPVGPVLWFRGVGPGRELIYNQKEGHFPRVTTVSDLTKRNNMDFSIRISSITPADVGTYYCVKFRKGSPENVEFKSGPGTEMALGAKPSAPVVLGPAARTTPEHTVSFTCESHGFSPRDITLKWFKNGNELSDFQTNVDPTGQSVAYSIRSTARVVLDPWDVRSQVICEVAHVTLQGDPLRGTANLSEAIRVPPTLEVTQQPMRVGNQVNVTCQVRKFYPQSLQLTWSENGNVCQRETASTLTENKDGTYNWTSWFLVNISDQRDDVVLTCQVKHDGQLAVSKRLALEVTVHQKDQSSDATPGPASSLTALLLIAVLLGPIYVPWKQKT

Binder	EC50 [nM]
B1	1.26
B2	1.49
B3	2.58
B4	7.43
B5	1.01
B6	1.5
B7	0.871
B8	1.6
B9	1.03
B10	0.822
B11	1.61
B12	0.868
B13	1.42
B14	2.47
B15	5.17
B16	1.2
B17	0.95
B18	1.98
B19	0.808
B20	4.03

These binders were tested against T2, human SIRPβ1 (human, UniProt O00241 30-398) (assay: CELISA, CHO-K1 transfectants; nd = not detected).
T2 construct: also called hSIRPβ1
Description: as §1, §2

T2 sequence (O00241 30-398 limits assumed): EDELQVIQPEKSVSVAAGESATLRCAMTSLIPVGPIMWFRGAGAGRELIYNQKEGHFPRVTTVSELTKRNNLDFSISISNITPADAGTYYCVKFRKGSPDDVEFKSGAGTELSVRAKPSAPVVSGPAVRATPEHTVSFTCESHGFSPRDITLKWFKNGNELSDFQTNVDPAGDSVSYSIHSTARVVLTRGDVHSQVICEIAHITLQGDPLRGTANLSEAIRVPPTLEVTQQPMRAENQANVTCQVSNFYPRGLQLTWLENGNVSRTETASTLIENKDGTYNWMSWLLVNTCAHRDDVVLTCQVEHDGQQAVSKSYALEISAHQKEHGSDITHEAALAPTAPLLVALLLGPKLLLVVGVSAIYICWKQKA

Binder	binding result
B1	no binding (tested: 10 µg/mL and dilutions thereof)
B2	no binding (tested: 10 µg/mL and dilutions thereof)
B3	no binding (tested: 10 µg/mL and dilutions thereof)
B4	no binding (tested: 10 µg/mL and dilutions thereof)
B5	no binding (tested: 10 µg/mL and dilutions thereof)
B6	no binding (tested: 10 µg/mL and dilutions thereof)
B7	no binding (tested: 10 µg/mL and dilutions thereof)
B8	no binding (tested: 10 µg/mL and dilutions thereof)
B9	no binding (tested: 10 µg/mL and dilutions thereof)
B10	no binding (tested: 10 µg/mL and dilutions thereof)
B11	no binding (tested: 10 µg/mL and dilutions thereof)
B12	no binding (tested: 10 µg/mL and dilutions thereof)
B13	no binding (tested: 10 µg/mL and dilutions thereof)
B14	no binding (tested: 10 µg/mL and dilutions thereof)
B15	no binding (tested: 10 µg/mL and dilutions thereof)
B16	no binding (tested: 10 µg/mL and dilutions thereof)
B17	no binding (tested: 10 µg/mL and dilutions thereof)
B18	no binding (tested: 10 µg/mL and dilutions thereof)
B19	no binding (tested: 10 µg/mL and dilutions thereof)
B20	no binding (tested: 10 µg/mL and dilutions thereof)

These binders were tested against T3, human SIRPα variant 1 (human, UniProt P78324 31-504) (assay: CELISA, CHO-K1 transfectants; average of two experiments).
T3 construct: full length ORF on transfected CHO-K1 or HEK293 cells; entry includes the signal peptide; also called hSIRPαV1; SIRPαV1
Description: as §1, §2

T3 sequence (P78324 31-504 limits assumed, change not shown): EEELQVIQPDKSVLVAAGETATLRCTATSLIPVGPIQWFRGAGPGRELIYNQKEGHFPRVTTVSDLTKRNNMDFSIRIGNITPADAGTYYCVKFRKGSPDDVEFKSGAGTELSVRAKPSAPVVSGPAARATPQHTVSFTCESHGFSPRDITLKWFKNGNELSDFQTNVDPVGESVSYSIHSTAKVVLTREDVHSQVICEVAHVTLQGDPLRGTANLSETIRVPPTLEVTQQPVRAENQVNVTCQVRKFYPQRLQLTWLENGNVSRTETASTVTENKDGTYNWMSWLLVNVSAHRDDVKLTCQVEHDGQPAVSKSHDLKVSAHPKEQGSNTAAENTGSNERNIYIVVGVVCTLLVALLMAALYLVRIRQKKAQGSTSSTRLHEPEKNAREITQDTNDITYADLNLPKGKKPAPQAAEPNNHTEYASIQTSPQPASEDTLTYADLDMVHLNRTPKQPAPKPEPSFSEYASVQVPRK

Binder	EC50 [nM]
B1	0.781
B2	0.883
B3	1.09
B4	1.49
B5	0.962
B6	1.05
B7	0.737
B8	0.933
B9	0.731
B10	0.675
B11	1.03
B12	0.681
B13	1.1
B14	1.16
B15	1.26
B16	0.878
B17	0.683
B18	1.2
B19	0.701
B20	1.17

What follows are binders tested against T4, human SIRPα variant 2 (human, UniProt P78324 31-504) in the same assay as above.
T4 construct: full length ORF on transfected CHO-K1 cells; also called hSIRPαV2; SIRPαV2
Description: as §1, §2

T4 sequence (P78324 other isoform, or with tags, fused parts or gaps mutant limits assumed): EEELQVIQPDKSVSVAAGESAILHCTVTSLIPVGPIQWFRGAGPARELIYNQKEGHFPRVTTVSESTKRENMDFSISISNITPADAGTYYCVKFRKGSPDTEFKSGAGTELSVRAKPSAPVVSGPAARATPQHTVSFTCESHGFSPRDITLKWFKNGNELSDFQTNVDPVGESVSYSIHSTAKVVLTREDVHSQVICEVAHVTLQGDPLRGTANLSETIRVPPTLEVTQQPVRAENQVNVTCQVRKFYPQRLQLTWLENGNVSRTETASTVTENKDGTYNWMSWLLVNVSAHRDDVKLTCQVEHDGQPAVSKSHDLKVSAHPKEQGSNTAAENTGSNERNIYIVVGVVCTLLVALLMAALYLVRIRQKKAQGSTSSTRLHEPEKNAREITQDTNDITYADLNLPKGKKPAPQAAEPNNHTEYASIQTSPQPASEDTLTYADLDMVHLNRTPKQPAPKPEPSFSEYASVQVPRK

Binder	EC50 [nM]
B1	0.816
B2	0.864
B3	1.11
B4	1.62
B5	0.848
B6	0.999
B7	0.651
B8	0.898
B9	0.709
B10	0.572
B11	0.796
B12	0.611
B13	1.06
B14	1.16
B15	1.52
B16	0.868
B17	0.681
B18	1.24
B19	0.661
B20	1.11

From US20180312587A1 (ADURO BIOTECH HOLDINGS EUROPE B V, published 2018)
